Data as given in paper PMC11301059, “The origin of esterase activity of Parkinson's disease causative factor DJ-1 implied by evolutionary trace analysis of its prokaryotic homolog HchA” (The Journal of Biological Chemistry, 2024).

Legend:
[1] = substrate: O=CC(=O)c1ccccc1; assay: PGO consumption, A250, initial velocity, Michaelis-Menten fit; assay type: biochemical, Homo sapiens; conditions: 20 mM sodium phosphate pH 7.0, 37 °C
Description: PGO consumption, A250, initial velocity, Michaelis-Menten fit on DJ-1

[2] = substrate: CC(=O)Oc1ccc([N+](=O)[O-])cc1; assay: pNP formation, A400, initial velocity, Michaelis-Menten fit; assay type: biochemical, Homo sapiens; conditions: 50 mM sodium phosphate pH 7.0, 37 °C, 0.7 μM enzyme
Description: pNP formation, A400, initial velocity, Michaelis-Menten fit on DJ-1

[3] = substrate: O=CC(=O)c1ccccc1; assay: PGO consumption, A250, initial velocity, Michaelis-Menten fit; assay type: biochemical, Escherichia coli; conditions: 20 mM sodium phosphate pH 7.0, 37 °C
Description: PGO consumption, A250, initial velocity, Michaelis-Menten fit on HchA

[4] = substrate: CC(=O)Oc1ccc([N+](=O)[O-])cc1; assay: pNP formation, A400, initial velocity, Michaelis-Menten fit; assay type: biochemical, Escherichia coli; conditions: 50 mM sodium phosphate pH 7.0, 37 °C, 1 μM enzyme
Description: pNP formation, A400, initial velocity, Michaelis-Menten fit on HchA

B1: DJ-1 (Homo sapiens) (protein)
chain: MASKRALVILAKGAEEMETVIPVDVMRRAGIKVTVAGLAGKDPVQCSRDVVICPDASLEDAKKEGPYDVVVLPGGNLGAQNLSESAAVKEILKEQENRKGLIAAICAGPTALLAHEIGFGSKVTTHPLAKDKMMNGGHYTYSENRVEKDGLILTSRGPGTSFEFALAIVEALNGKEVAAQVKAPLVLKD
notes: N-terminal His-tag (pET28a), expressed in E. coli BL21(DE3)+RIL, Ni-NTA purified, tag removal not mentioned
[1]; 2 μM enzyme
  Km: 5.22 ± 0.65 × 10^-5 M
  kcat: 0.12 ± 0.007 s⁻¹
  kcat/Km: 2400 ± 229 M⁻¹ s⁻¹
[2]
  Km: 4.76 ± 1.25 × 10^-3 M
  kcat: 5.47 ± 0.935 s⁻¹
  kcat/Km: 1180 ± 203 M⁻¹ s⁻¹

B2: DJ-1 (Homo sapiens; A107H) (protein)
chain: MASKRALVILAKGAEEMETVIPVDVMRRAGIKVTVAGLAGKDPVQCSRDVVICPDASLEDAKKEGPYDVVVLPGGNLGAQNLSESAAVKEILKEQENRKGLIAAICHGPTALLAHEIGFGSKVTTHPLAKDKMMNGGHYTYSENRVEKDGLILTSRGPGTSFEFALAIVEALNGKEVAAQVKAPLVLKD
notes: as for B1
[1]; 0.3 μM enzyme
  Km: 6.44 ± 1.13 × 10^-4 M
  kcat: 1.65 ± 0.127 s⁻¹
  kcat/Km: 2600 ± 303 M⁻¹ s⁻¹

B3: HchA (Escherichia coli K-12) (protein)
chain: MTVQTSKNPQVDIAEDNAFFPSEYSLSQYTSPVSDLDGVDYPKPYRGKHKILVIAADERYLPTDNGKLFSTGNHPIETLLPLYHLHAAGFEFEVATISGLMTKFEYWAMPHKDEKVMPFFEQHKSLFRNPKKLADVVASLNADSEYAAIFVPGGHGALIGLPESQDVAAALQWAIKNDRFVISLCHGPAAFLALRHGDNPLNGYSICAFPDAADKQTPEIGYMPGHLTWYFGEELKKMGMNIINDDITGRVHKDRKLLTGDSPFAANALGKLAAQEMLAAYAG
notes: N-terminal His-tag (pET21a), expressed in E. coli BL21(DE3)+RIL, Ni-NTA purified, tag removal not mentioned; dimer
[3]; 0.3 μM enzyme
  Km: 1.49 ± 0.40 × 10^-4 M
  kcat: 0.67 ± 0.053 s⁻¹
  kcat/Km: 4730 ± 1250 M⁻¹ s⁻¹

B4: HchA (Escherichia coli K-12; D214A) (protein)
chain: MTVQTSKNPQVDIAEDNAFFPSEYSLSQYTSPVSDLDGVDYPKPYRGKHKILVIAADERYLPTDNGKLFSTGNHPIETLLPLYHLHAAGFEFEVATISGLMTKFEYWAMPHKDEKVMPFFEQHKSLFRNPKKLADVVASLNADSEYAAIFVPGGHGALIGLPESQDVAAALQWAIKNDRFVISLCHGPAAFLALRHGDNPLNGYSICAFPDAAAKQTPEIGYMPGHLTWYFGEELKKMGMNIINDDITGRVHKDRKLLTGDSPFAANALGKLAAQEMLAAYAG
notes: as for B3
[3]; 1.8 μM enzyme
  Km: 2.55 ± 0.47 × 10^-5 M
  kcat: 0.075 ± 0.005 s⁻¹
  kcat/Km: 2980 ± 355 M⁻¹ s⁻¹

B5: HchA (Escherichia coli K-12; H186A) (protein)
chain: MTVQTSKNPQVDIAEDNAFFPSEYSLSQYTSPVSDLDGVDYPKPYRGKHKILVIAADERYLPTDNGKLFSTGNHPIETLLPLYHLHAAGFEFEVATISGLMTKFEYWAMPHKDEKVMPFFEQHKSLFRNPKKLADVVASLNADSEYAAIFVPGGHGALIGLPESQDVAAALQWAIKNDRFVISLCAGPAAFLALRHGDNPLNGYSICAFPDAADKQTPEIGYMPGHLTWYFGEELKKMGMNIINDDITGRVHKDRKLLTGDSPFAANALGKLAAQEMLAAYAG
notes: as for B3
[3]; 1.8 μM enzyme
  Km: 1.87 ± 0.24 × 10^-5 M
  kcat: 0.0491 ± 0.004 s⁻¹
  kcat/Km: 2640 ± 202 M⁻¹ s⁻¹
[4]
  Km: 4.76 ± 0.36 × 10^-3 M
  kcat: 3.11 ± 0.144 s⁻¹
  kcat/Km: 655 ± 19.4 M⁻¹ s⁻¹
